Experimental findings from publication PMC7028737 are described below.

This experiment addresses Skp1-FBW7 complex (UniProt Q969H0). As to the kind of experiment: ITC; MicroCal VP-ITC, 30 °C, 50 mM phosphate buffer pH 7.4; cell: 15 μM Skp1-FBW7 complex (1400 μL); syringe: 300 μM FIR∆exon2, 25 injections of 10 μL.
Sequence of UniProt Q969H0 (Q969H0 whole entry, chain 1 of 2): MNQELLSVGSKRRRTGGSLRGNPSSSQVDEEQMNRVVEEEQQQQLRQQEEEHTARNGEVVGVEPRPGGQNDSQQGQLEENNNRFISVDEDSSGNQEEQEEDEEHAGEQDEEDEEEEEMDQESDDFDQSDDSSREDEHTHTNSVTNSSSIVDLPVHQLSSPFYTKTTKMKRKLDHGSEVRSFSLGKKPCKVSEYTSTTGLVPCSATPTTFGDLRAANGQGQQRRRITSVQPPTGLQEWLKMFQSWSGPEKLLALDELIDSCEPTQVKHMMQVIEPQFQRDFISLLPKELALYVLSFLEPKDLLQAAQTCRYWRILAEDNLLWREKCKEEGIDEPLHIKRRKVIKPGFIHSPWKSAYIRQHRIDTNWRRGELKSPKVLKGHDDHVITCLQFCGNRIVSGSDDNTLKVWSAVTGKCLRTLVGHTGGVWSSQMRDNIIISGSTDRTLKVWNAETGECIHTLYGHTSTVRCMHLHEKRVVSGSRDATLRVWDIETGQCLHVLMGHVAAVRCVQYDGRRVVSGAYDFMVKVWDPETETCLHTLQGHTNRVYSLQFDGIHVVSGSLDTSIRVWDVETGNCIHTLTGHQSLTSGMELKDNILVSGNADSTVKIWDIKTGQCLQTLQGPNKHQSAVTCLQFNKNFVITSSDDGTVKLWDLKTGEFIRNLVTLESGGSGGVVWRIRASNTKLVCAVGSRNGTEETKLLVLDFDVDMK
Sequence of UniProt Q969H0 (P63208 whole entry, chain 2 of 2, further chain): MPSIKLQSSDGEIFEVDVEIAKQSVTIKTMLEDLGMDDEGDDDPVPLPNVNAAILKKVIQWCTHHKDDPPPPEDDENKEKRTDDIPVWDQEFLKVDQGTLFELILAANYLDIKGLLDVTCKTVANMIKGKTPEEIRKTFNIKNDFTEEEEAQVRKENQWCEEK

Regarding “FIR∆exon2 (recombinant, Nus-tag cleaved) (natural protein)”, the Ka is greater than 108 M⁻¹.
